Laboratory results published in the nanobody polyreactivity screen of Harvey et al. (2022).

Experiment: yeast display, Sf9 membrane polyspecificity reagent, FACS + sequencing; frameworks hold sequencing errors
How it was run: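 After 36–48 hours of galactose induction, yeast (Saccharomyces cerevisiae BJ5465) displaying a synthetic nanobody library were stained at 4 °C for 1 hour with 10% biotinylated, detergent-solubilized Sf9 membrane reagent. Streptavidin microbeads enriched the stained cells before FACS sorting into low and high (top ~1%) gates on anti-HA and streptavidin fluorescence. Each clone's polyreactivity label reflects its gate of origin.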

Sequence	polyreactivity (PSR sort gate)
QVQLVESGGGLVQAGGSLRLSCAASGSTFDDYAMGWYRQAPGKERELVAAISRSDGSTSYADSVKGRFTISRDNAKNTVYLQMNSLKPEDTAVYYCAADPVFKDDLWPVRVRVDYWGQGTQVTVSS	low polyreactivity
QVQLAESGGGLVQAGGSLRLSCAASGRTFGRYVMGWYRQAPGKERELVAAITSSSSSTYADSVKGRFTISRDNAKNTVYLQMNSLKPEDTAVYYCNKRYTSRHRPEYDYWGQGTQVTVSS	high polyreactivity
QLQLVESGGGLVQAGGSLRLSCAASGSTFGFYAMGWYRQAPGKARELVAAISSSGSTYYADSVKGRFTISRDNAKITVYLQMNSLKPEDTAVYYCAAQPGYYDYDYWGQGTQVTVSS	low polyreactivity
QVQLVESGGGLVQAGGSLRLSCAASGRIFDDNAMGWYRQAPGKERELVAAISSGDSTKYADSVKGRFTISRDNAKNTVYLQMNSLKPEDTAVYYCNRRKTNSRYDYWGQGTQVTVSS	low polyreactivity
QVQLVESGGGLVQAGGSLRLSCAASGTMGSYRQAPGKERELVAAISQSGGSTYYADSVKGRFTISRDNAKNTVYLQMNSLKPEDTAVYYCAVDPRYGHPRRDYWGQGTQVTVSS	low polyreactivity
QVQLVESGGGLVQAGGSLRLSCAASGRNILPYAMGWYRPSPGKERELVAAISVSGVITYYAESVKGRFTISRDNAKNTVYLQMNSLKPEDTEVYYCASDYTPRRWGRLYDYWGQGTQVTVSS	low polyreactivity
QVQLVESGGGLVQAGGSLRLSCAASGSTFTGYAMGWYRPAPGKERELVAAISRSVGRTYYADSVKGRFTISRDNAKNTVYLQMNSLKPEDTAVYYCAADVYLTGSRNYYWGQGTQVTVSS	high polyreactivity
QVQLVESGGGLVQAGGSLRLSCAASGSTFSINAMGWYRQAPGIERELVAAISRSGGSTYYADSVKGRFTISRDNAKNTVYLQMNSLKPEDTAVYYCAADSRYDYEYWGQGTQVTVSS	high polyreactivity
QVQLQESGGGLVQAGGSLRLTCAASRNISGSADLGWYHPAPGKEREFVASITSGGTTYYADSVKGRVTISRDNAKNTVYLQMNSLKPEDTAVYYCAVGDPADAEFGYWGQGSQVTVSS	low polyreactivity
QVQLVESGGGLVQAGGSLRLSCAASGSTFLTNTMGWYRQAPGKERELVAAISKSGGSTYYADSVKGRFTISRDNAKNTVYLQMNSLKPEDTAVYYCAAVRYVHFGYDYWGQGTQVTVSS	high polyreactivity
QVQLVESGGGLVQAGGSPRLSCAASGSTFVPYDMGWYRQAPAKERELVAAISRGGSTYYADSVKGRFTISRDNAKNTFYLQMNSLKPEDTAVYYCDARARICTVDYWVQGTQVTVSS	high polyreactivity
QVQLVESGGGLVQAGGSLRLSFAASGITFTVYTMGWNRQAHGKVRELVPTINSSGSTYYADSVKGRFTISRDNAKNRVYLQMNSLKPEDTAVYYCAAEYWINRDLMDYWGQGTQVTVSS	high polyreactivity
QVQLVESGGGLVQAGGSLRLSCAASGRTFTVNAIGWYRQAPGKERELVAAISGRSGRTSYADSVKGRFTISRDNAKNTVYLQMNSLKPEDTAVYYCNASGGYSTGSRYDYWGQGTQVTVSS	high polyreactivity
QVQLVESGGGLVQAGGSLRLSCAASGRTFLRNAMGWYRQAPGKERELVAAITSSGGRTYYADSVKGRFTISRDNAKNTVYLQMNSLKPEDTAVYYCAVDVTVREWFEYYYWGQGTQVTVSS	high polyreactivity
QVQLVESGGGLVQAGGSLRLSCAASGRIFGYYAMGWYRQAPGKERELVASIRRGTRTNYADSVKGRFTISRDNAKNTVYLQMNSLKPEDTAVYYCAATRFQFTTTPWYDYWGQGTQVTVSS	high polyreactivity
QVQIVESGGGLVQAGGSLRLSCAASGFIFRYNVMGWYRQAPAKERELVAANSSSGSRTYYADSVKGRFTISRDNAKNTVYLQMNSLKPEDTAVYYCATQSWVRYGQPEFDYWGHGTQVTVSS	high polyreactivity
QVQLVESGGGLVQAGGSLRVSCAASGRTFPYYDMGWYRQAPGKEREFVAAITWRGGSTYYADSVKGRFTISRDNAKNTVYLQMNSLKPEDSAVYYCATDSLRLYGGKRDLYYWGQGTQVTVSS	low polyreactivity
QVQHVESGGGLVQAGGSLRLSCAASGFILPWYVMGWYRQAPGKERELVAAISGTGGSTYYADSVKGRFTISRDNAKNTVYLQMNSLKPEDTAVYYCAAGAFYAGYYWEFYYWGQGTQVTVSS	high polyreactivity
QFQLVESGGGLVQAGGSLRLTCAASGSIFLWYAMGWYRQAPGKERELVAVITSSGGTTYYADSVKGRFTISRDNAKNTVYLQMNCLKPADTAVYYCAADFYRHPPGSLTKLYYYWGQGTQVTVSS	low polyreactivity
QVQLVESGGGLVQAGGSLRLSCAASGFTFYYYTMGWYRQAPGKERELVAAITISGGSTYYADSVKGRFTISRDNAKNTVYLQMNSLKPEDSAVYYCNADYQWYLGGYDFWGQGTQVTVSS	high polyreactivity
QVQLVESGGGLVQAGGSLRLSCAASGFIFGSYAMGWYRQAPGKERELVAAISWSGASTYYADSVKGRFTISRDKAKNTVYLQMNSLKPEDTAVYYCAAVSRYGWYDYWGQGTQVTVSS	high polyreactivity
QVQLVESGGGLVQAGGSLRLSCAASGSIFITYAMGWYRQAPGKERELVAAIRDSGDRTYYADSVKGRFTISRDNAQNTVYLQMNSLKPEDTAVYHCNARWQEPLKYDYWGQGTQVTVSS	low polyreactivity

Sequence	polyreactivity (PSR sort gate)
QVQLVESGGGLVQAGGSLRLSCAASGRIIGYYAMGWYRQAPGKERELVAAITSSGSRTYYADSVKGRFTISRDNAKNTVYLQMNSLKPEDTAVYYCATTKVYYSSKSSYYYWGQGTQVTVSS	high polyreactivity
QDQLVESGGGLVQAGGSLRLSCAASGGTFGGYAMGWYRQAPGKERELVAAITYSGGSTYYADSVKGRFTISRDNAKNTVYLQMNSLKPEDTAVYYCAQYHYRYYYWGQGTQVTVSS	high polyreactivity
QVQLQESGGGLVQARGSLRLSCAASGTISQEDCMGWYRQAPGKVREFVAAIGLGSNTNYADRLKGRFTISRDNAKNTVYLQMNSLKTEDTAVYYCAVSVWQYSDHVYRGQGTQVTVSS	low polyreactivity
QVQLVESGGGLVQAGGSLRLSCAASGNIFTTYAMGWYRQAPGKERELVAAISRSGGRTNYADSVKGRFTISRDNAKNTVYLQLNSLKPEDTAVYYCAADGVPGRAVDYEYWGQGTQVTVSS	high polyreactivity
QVQLVVSGAGLVQAGGSLRLSCAASGRNVVRNAMGWSRQAPGNEREWVAAITSGGRTYYAVSVKGRFTISRDNAKNTVYLQMTSLTPEDTAVYSCSTETRPHSVKNSPISLPDDYWGQGTQETVSS	low polyreactivity
QVQLVESGGGLVQAGGSLRLSCAASGRNFFRYAMGWYRQAPGKERELVATISRSGGTYADSVKGRFTISRDNAKNTVYLQMNSLKPEDTAVYYCNARTLYAYITRDYWGQGTQVTVSS	high polyreactivity
QVQLVESGGGLVHAGGSLRLSCAASGYTFQWYDMGWYRQAPGKERELVASISWRGGSTYYADSVKGRFTISRDHAKNTVYLQMNSLKPEDTAVYYCAASLWPDYEYDYWGQGTQVTVSS	low polyreactivity
QVQLVESGGGLVQAGGSLRLSCAASGIIFPRYAMGWYIQAPGKERELVAAITKRGGSTYYADSVKGRFTISRDNANNTVYLQMNSLKPEDTAVYYCARVWSRRYGGWYRNYDYWGQGTKVTVSS	high polyreactivity
QVQLVESGGGLVQAGGSLRLSCAASGSNFHGNAMGWSRQAPGKERELVAAISQSGDSTYYADSVKGRFTISRDNAKNTVYLQMNSLKPEDTAVYYCAARSGYRGYYHFYYWGQGTQVTVSS	high polyreactivity
QVQLVESGGGLVQAGGSLRLSCAASGRTSLRYAMGWYRQAPGKERELVAAITSSGATTYYADSVKGRFTISRDNAKNTVYLQMNSLKPEDTAVYYCAAVYSAKRGSGGFGYWGQGTQVTVSS	high polyreactivity
QVQLVESGGGLVQAGGSLRLSCAASGSIFADYAMGWYRQAPGKERELVAGISGRGGRTYYADSVKGRFTISRDYAKNTVYLQMNSLKPEDTAVYYCAAKYNYYTWPTRYTATGYYYWGQGTQVTVSS	high polyreactivity
QLQLVESGGGLVQAGGSLRLSCAASGSTFPTNAMGWYRQAPGKEMELVATITTGGSTYYADSVKGRFTISRDNAKNTVYLQMNCLKPEDTAVYYCNAEYVYLIFSVYLYDYDYWGQGTQVTVSS	low polyreactivity
QVQLVESGGGLVQAGGSLRLSCAASGSTFYPNAMGWYRQAPGKERELVAAISRSGGSTYYADSVKGRFTISRDNAKNTVYLQMNSLKPEDTAVYYCAADGRSPARYDYWGQGTQVTVSS	low polyreactivity
QVQLVESGGGLVQAGGSLRLSCAASGITFYDYPMGWYRQAPGKERELVAAITSSGGRTYYADSVKGRFTISRDNAKNTVYLQMNSLKPEDTAVYYCAASTYPHEYDYWGQGTQVTVSS	low polyreactivity
QVQLVESGGGLVQAGGSLRLSCAASGSTFDWYAMGWYRQAPGKERELVAAITSGGSTYYADSVKGRFTISRDNAKNTVYLQMNSLKPEDTAVYYCAAESRQVRYILYYYWGQGTQVTVSS	low polyreactivity
QVQLVESAGGLVQAGGSLRLSCAASGGTFSTYAIGWYRQAPGKEREFVAAITRSGTSTYYADSVKGRFTISRDNAKNTVYLQMNSLKPEDTAVYYCAAGVYSFRYDYWGQGTQVTVSS	low polyreactivity
QVQLVESGGGLVHAGGSLRLSCAASGFIFKFYAMGWYRQAPGKERELVAAISKSGGRTYYADSVKGRFTISRDNAKNTVYLQMNSLKPEDTAVYYCNAPSVGAAFDYWGQGTQVTVSS	high polyreactivity
QVQLVESGGGLVQAGGSLRLSCAASGSIFRRNAMGWYRQAPGKERELVATITSDGSTDYADSVKGRFTISRDNAKNTVYFQMNSLKPEDTAVYYCAVAYLWRPYDFREFDYWGQGTQVTVSS	low polyreactivity
QVQLVESGGGLVQAGGSLRLSCAASGRTFRYYAMGWYRQAPGKEREFVASIRRGGGSTYYADSVKGRFTISRDNAKNTVYLQMNSLKPEDTAVYYCAAQPYTLSLFRLNYDYWGQGTQVTVSS	low polyreactivity
QVQLVESGGGLVEAGGSLRLICAAAGSNFSYYAMGWYRQAPGKERELVAAISWNGGRTYYADSVKGRFTISRDNAKYSVYLQMNSLKPEDTAVYYCAARSSYKFYYWGQRTQVTVSS	high polyreactivity
QVQLVESGGGLVQAGGSLRLRCAASGFTIWPYAMGWYRQAPGKERELVAGITRKGGSTYYADSVKGRFTISRDNAKNTVYLQMNSLKPEDTAVYYCNTKYAVEIDYWGQGTQVTVSS	low polyreactivity
